For one assay, the target named is SIH-11. Description: AUC.
In assay [1] the target is mammalian expressed RBD (mRBD) of SARS-CoV-2 spike (SARS-CoV-2), P0DTC2. Description: SPR. Background: In SPR one partner is held on a chip, and binding of the other changes the refractive index at the surface.
A further assay deals with SIH-13. Description: AUC.
The next assay addresses SIH-7. Description: AUC.

3 molecules from publication PMC9512702 can be followed below.

“And” between values parts separate entries of the source, which are not always exact repeats. Equal entries are not always repeated.

As usually defined, the stoichiometry N is a count of units in the complex or per binding partner. A word on the Kd: it is the equilibrium constant for the complex coming apart. Low readings indicate tighter binding, high ones weaker binding. DKEWILQKIYEIMRLLDELADAEASMRVSDLIYEFMKK (designed binder, modifications not checked) [SIH-11]: the stoichiometry N with SIH-11 was determined as 3.2. Also, the Kd in assay [1] turned out to be 1.3 nM.

As to DKEWILQKIFEIMRLLDELADAEASMRVSDLIYEFMKK (designed binder, modifications not checked) [SIH-13], the stoichiometry N with SIH-13 was 9.5 and 17.7. Also, in assay [1], the Kd is 1.6 nM.

For the molecule DKEWILQKIFEIMRLLDELADAEASMRVSDLIYEFMKK (designed binder, modifications not checked) [SIH-7], the stoichiometry N in the assay with SIH-7 was 4.1 and 7.9. This molecule displayed a Kd in assay [1] of 2.9 nM.
